Results taken from patent US20240084041A1.

Biological target: MET on NCI-H596 cells (MET exon14 skip mutation) (human) (UniProt P08581)
Assay: cell-based or functional assay

hepatocyte growth factor (HGF) (from UniProt P14210 32-728) (ligand)
Relative Cell Growth (n = 3), NCI-H596 in soft agar, 100 ng/mL, two weeks (relative to control (no treatment)): 7.88
